Experimental data from patent publication US20080138334A1, “Immune-Derived Moieties Reactive Against Bioactive Lipids, and Methods of Making and Using Same” (priority 2006, published 2008).
Entries after “also recorded” stand apart in the source; their conditions may differ. Read-outs that look alike come from different tables or passages of the source.

How the values were obtained:
[1] = Direct ELISA, chimeric antibody and mutants binding to S1P; details: for Binding: antibody concentration 0.1 ug/ml, S1P-coated plate
Protocol: Microtiter ELISA plates (Costar) were coated overnight with S1P diluted in 1 M Carbonate Buffer (pH 9.5) at 37° C. for 1 hr. Plates were washed with PBS (137 mM NaCl, 2.68 mM KCl, 10.1 mM Na2HPO4, 1.76 mM KH2PO4; pH 7.4) and blocked with PBS/BSA/Tween-20 for 1 hr at room temp or overnight at 4° C. For the primary incubation (1 hr at room temp.), a standard curve using the anti-S1P mAb and the samples to be tested for binding was built using the following set of dilutions: 0.4 μg/mL, 0.2 μg/mL, 0.1 μg/mL, 0.05 μg/mL, 0.0125 μg/mL, and 0 μg/mL, and 100 μl added to each well. Plates were washed and incubated with 100 μl per well of HRP conjugated goat anti-mouse (1:20,000 dilution) (Jackson Immuno Research) or HRP conjugated goat anti-human (H+L) diluted 1:50,000 (Jackson Immuno Research) for 1 hr at room temperature. After washing, the enzymatic reaction was detected with tetramethylbenzidine (Sigma) and stopped by adding 1 M H2SO4. The optical density (OD) was measured at 450 nm using a Thermo Multiskan EX. Raw data were transferred to GraphPad software for analysis.
The chromogenic reaction was measured and reported as Optical density (OD). The concentration of the panel of antibodies was 0.1 ug/ml. No interaction of the second antibody with S1P-coated matrix alone was detected.

Caki-1 cells = experiment: In vitro IL-8 production, ELISA of culture supernatants; format: cell-based, human; details: 18:1 LPA (0.2 mM), 24h, non-treated cells
Protocol: Three anti-LPA mAbs (B3, B7 and B58) were tested for their abilities to reduce in vitro IL-8 production compared to a non-specific antibody (NS). Caki-1 cells were seeded in 96 well plates and grown to confluency. After overnight serum starvation, cells were treated with 18:1 LPA (0.2 mM) with or without anti-LPA mAb B3, B7, B58 or NS (Non-Specific). After 24h, cultured supernatants of renal cancer cells (Caki-1), treated with or without LPA and in presence of increasing concentrations of the anti-LPA mAbs B3, B7 and B58, were collected and analyzed for IL-8 levels using a commercially available ELISA kit (Human Quantikine Kit, R&D Systems, Minneapolis, Minn.). […] Similar results were obtained with the other well-known pro-angiogenic factor, VEGF. The inhibition of IL-8 release by the anti-LPA mAbs was also observed in other cancerous cell lines such as the pancreatic cell line Panc-1.

[2] = Competitive ELISA for cross reactivity of anti-S1P mAb, competitor C1P; format: binding; details: C1P (amino group esterified to a fatty acid)
Protocol: (§1) Screening of serum and cell supernatant for S1P-specific antibodies was by direct ELISA using the thiolated S1P analog described in Example 1 (i.e., compound 10) as the antigen. A standard ELISA was performed, as described below, except that 50 ul of sample (serum or cell supernatant) was diluted with an equal volume of PBS/0.1% Tween-20 (PBST) during the primary incubation. ELISAs were performed in 96-well high binding ELISA plates (Costar) coated with 0.1 μg of chemically-synthesized compound 10 conjugated to BSA in binding buffer (33.6 mM Na2CO3, 100 mM NaHCO3; pH 9.5). The thiolated-S1P-BSA was incubated at 37° C. for 1 hr. at 4° C. overnight in the ELISA plate wells. The plates were then washed four times with PBS (137 mM NaCl, 2.68 mM KCl, 10.14 mM Na2HPO4, 1.76 mM KH2PO4; pH 7.4) and blocked with PBST for 1 hr. at room temperature. For the primary incubation step, 75 uL of the sample (containing the S1P to be measured), was incubated with 25 uL of 0.1 ug/mL anti-S1P mAb diluted in PBST and added to a well of the ELISA plate. […] Optical density of the samples was determined by measurement at 450 nm using an EL- X-800 ELISA plate reader (Bio-Tech).
(§2) For cross reactivity, a competitive ELISA was performed as described above, except for the following alterations (FIG. 4). […] Biotin incorporation was determined as per kit protocol and ranged from 7 to II biotin molecules per antibody. […]

[3] = ELISA with exchanged crosslinker or protein carrier in the laydown material; format: binding
Source text: For example, the normal crosslinker SMCC was exchanged for IOA in conjugating the thiolated-S1P to BSA as the laydown material in the ELISA. […] Similarly, KLH was exchanged for BSA as the protein that was complexed with thiolated-S1P as the laydown material.

[4] = Competitive ELISA for cross reactivity of anti-S1P mAb, competitor LPA; format: binding; details: LPA (glycerol backbone)
Protocol: as §1, §2

[5] = BIAcore binding kinetics of anti-S1P mAb to immobilized S1P; details: depending on monovalent or bivalent binding model, read-out: affinity of the monoclonal antibody to S1P
Protocol: Binding kinetics: The binding kinetics of S1P to its receptor or other moieties has, traditionally, been problematic because of the nature of lipids. Many problems have been associated with the insolubility of lipids. For BIAcore measurements, these problems were overcome by directly immobilizing S1P to a BIAcore chip. Antibody was then flowed over the surface of the chip and alterations in […] were measured to determine the binding characteristics of the antibody to S1P. To circumvent the bivalent binding nature of antibodies, S1P was coated on the chip at low densities. Additionally, the chip was coated with various densities of S1P (7, 20, and 1000 RU) and antibody binding data was globally fit to a 1:1 interaction model.

[6] = Competitive ELISA for cross reactivity of anti-S1P mAb, competitor SPC; format: binding; details: competitor SPC (free phosphate linked with a choline)
Protocol: as §1, §2

[7] = Competitive ELISA for cross reactivity of anti-S1P mAb, competitor DH-S1P; format: binding
Protocol: as §1, §2

[8] = Competitive ELISA for cross reactivity of anti-S1P mAb, competitor S1P; format: binding
Protocol: as §1, §2

With CysPhe the “binding to S1P compared with the chimeric antibody” value ([1]; ELISA, substitution of Cys at position 50 of heavy chain) was “did not alter the binding” and the Binding [1] was 2 OD.

MetLeu showed a Binding [1] of 1.6 OD.

In the case of lysophosphatidic acid [LPA], the “increase of the expression of IL-8” value (Caki-1 cells) is reported as 100%.

B1: anti-S1P mAb: murine IgG1 kappa monoclonal antibody against S1P from hybridoma clone 306D326.26 (ATCC SD-5362) (antibody, V domains shown)
VH: QAHLQQSDAELVKPGASVKISCKVSGFIFIDHTIHWMKQRPEQGLEWIGCISPRHDITKYNEMFRGKATLTADKSSTTAYIQVNSLTFEDSAVYFCARGGFYGSTIWFDFWGQGTTLTVS
VL: ETTVTQSPASLSMAIGEKVTIRCITTTDIDDDMNWFQQKPGEPPNLLISEGNILRPGVPSRFSSSGYGTDFLFTIENMLSEDVADYYCLQSDNLPFTFGSGTKLEIK
With B1 the antibody binding [2] was “no antibody binding was observed”, the “binding characteristics versus BSA laydown” value ([3]; KLH exchanged for BSA as protein) was “no significant difference” and the “binding characteristics versus BSA-SMCC-thiolated-S1P laydown” value ([3]; SMCC exchanged for IOA) was “nearly identical”. The antibody binding [4] was “no binding”, the Kd ([5]; lower end) was ~0.088 nM and the Kd ([5]; upper end) was ~99 nM. For the same molecule, the “competition for the mAb binding to S1P on the plate” value (“competition for the mAb binding” for short) [6] was “somewhat reduced; also recorded: only slightly competes for binding”, the “competition for the mAb binding” value [7] was “can compete for binding” and the “distinction of thiolated-S1P analog (compound 10) from natural S1P” value ([8]; competition experiment) was “unable to distinguish”. For the same molecule, the “competition for the mAb binding” value ([8]; competitor free S1P) was “can compete for binding”.
